Data published in patent US20140087995A1 (published 2014).
Numbered stars: 1 amine (or outer) side, 2 acyl side, 3 side chain; on linkers, the order of the positions; unused ones are H or OH. Bridge positions count the residues as written; N and C are the ends. * marks the point of attachment. C20 diacid = O=C(O)CCCCCCCCCCCCCCCCCCC(=O)*; γGlu = O=C(O)[C@H](CCC(=O)[*:2])N[*:1]

T1: human calcitonin receptor (human, UniProt P30988 25-474)
T1 construct: whole, on cells; Cell membranes of a stably transfected BHK cell line (Assay VII); also called hCTR; hCT
T1 sequence (looked up): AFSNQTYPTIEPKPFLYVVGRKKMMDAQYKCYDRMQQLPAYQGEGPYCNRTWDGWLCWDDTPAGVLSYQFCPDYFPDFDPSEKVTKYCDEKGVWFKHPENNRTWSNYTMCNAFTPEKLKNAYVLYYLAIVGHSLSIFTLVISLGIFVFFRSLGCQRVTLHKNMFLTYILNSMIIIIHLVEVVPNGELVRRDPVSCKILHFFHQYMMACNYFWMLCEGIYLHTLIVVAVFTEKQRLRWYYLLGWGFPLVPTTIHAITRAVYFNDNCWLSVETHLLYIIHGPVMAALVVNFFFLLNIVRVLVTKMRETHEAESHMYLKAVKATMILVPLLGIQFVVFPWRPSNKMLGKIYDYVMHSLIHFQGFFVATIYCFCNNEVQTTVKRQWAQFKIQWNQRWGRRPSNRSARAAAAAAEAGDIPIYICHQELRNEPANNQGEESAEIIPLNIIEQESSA

T2: rat amylin receptor (rat calcitonin receptor + rat RAMP 3) (rat, UniProt P32214 25-516; Q9JJ73 23-147)
T2 construct: whole, on cells; Cell membranes of transiently transfected BHK tk'ts 13 cells (Assay VI); also called rAmylin-R; rat amylin 3(a) receptor
T2 sequence (looked up) 1: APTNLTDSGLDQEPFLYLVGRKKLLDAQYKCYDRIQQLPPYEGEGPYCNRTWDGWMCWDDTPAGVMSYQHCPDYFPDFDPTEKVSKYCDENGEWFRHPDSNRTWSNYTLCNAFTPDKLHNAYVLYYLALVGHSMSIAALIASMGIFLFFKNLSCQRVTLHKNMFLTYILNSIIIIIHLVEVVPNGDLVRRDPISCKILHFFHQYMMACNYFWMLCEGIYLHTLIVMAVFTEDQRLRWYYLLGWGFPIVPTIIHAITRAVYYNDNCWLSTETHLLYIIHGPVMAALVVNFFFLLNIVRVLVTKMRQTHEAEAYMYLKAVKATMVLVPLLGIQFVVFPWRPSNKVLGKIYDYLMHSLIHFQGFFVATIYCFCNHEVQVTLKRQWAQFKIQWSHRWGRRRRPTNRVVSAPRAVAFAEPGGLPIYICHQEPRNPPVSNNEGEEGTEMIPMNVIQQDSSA
T2 sequence (looked up) 2: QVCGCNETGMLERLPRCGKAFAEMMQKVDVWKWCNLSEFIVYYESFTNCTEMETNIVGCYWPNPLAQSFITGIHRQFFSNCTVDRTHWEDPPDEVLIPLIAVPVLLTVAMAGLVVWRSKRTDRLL

T3: rat calcitonin receptor (rat, UniProt P32214 25-516)
T3 construct: whole, on cells; Cell membranes of transiently transfected BHK tk'ts 13 cells (Assay VIII); also called rCTR; rCT
T3 sequence (looked up): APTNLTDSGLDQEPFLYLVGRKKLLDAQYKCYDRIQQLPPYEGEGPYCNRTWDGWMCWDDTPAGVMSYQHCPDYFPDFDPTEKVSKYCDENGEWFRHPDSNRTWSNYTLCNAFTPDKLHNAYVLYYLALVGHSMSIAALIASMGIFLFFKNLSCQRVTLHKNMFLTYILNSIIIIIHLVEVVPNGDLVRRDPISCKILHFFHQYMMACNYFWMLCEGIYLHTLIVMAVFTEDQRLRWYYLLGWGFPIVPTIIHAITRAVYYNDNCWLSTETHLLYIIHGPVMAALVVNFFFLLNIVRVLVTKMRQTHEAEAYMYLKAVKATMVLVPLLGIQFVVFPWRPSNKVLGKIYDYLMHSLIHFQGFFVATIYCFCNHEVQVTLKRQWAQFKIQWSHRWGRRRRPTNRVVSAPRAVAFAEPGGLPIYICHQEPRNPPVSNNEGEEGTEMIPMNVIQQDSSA


How the values were obtained:
[1] = target: T1, human calcitonin receptor; experiment: ratio IC50 human calcitonin receptor / IC50 human amylin receptor
Method: The resulting pellet was resuspended, homogenized and centrifuged (20.000 rpm, 15 min) in a buffer containing 20 mM Na-HEPES and 0.1 mM EDTA (pH 7.4, buffer 2). The resulting pellet was resuspended in buffer 2 and protein concentration was measured (BCA protein Assay, Pierce). The homogenate was kept cold during the whole procedure. The membranes were kept at −80° C. until use. The assay was performed in a 384 well Optiplate (PerkinElmer) in a total volume of 40 ul. Membranes were mixed with SPA beads. Final concentration of membranes 35 ng/μL final and SPA beads was 0.05 mg/well. Test-compounds were dissolved in DMSO and further diluted in assay buffer (50 mM Hepes, pH 7.4, 1 mM CaCl2, 5 mM MgCl₂, 0.1% OA and 0.02% Tween20). […] The final mixture was incubated with shaking at 400 rpm for 120 min at 25° C. prior to centrifugation (1500 rpm, 10 min). Samples were analyzed on TopCounter™ (Packard). The IC₅₀ was calculated using (one site binding competition analysis) GraphPad Prism5 as a measure of receptor affinity.
Membranes were prepared in the following way; the cells were rinsed with PBS and incubated with Versene for approximately 5 min before harvesting. The cells were flushed with PBS and the cell-suspension was centrifuged for 5 min at 1000 rpm. Cells were homogenized (Ultrathurrax) in a buffer containing 20 mM Na-HEPES and 10 mM EDTA (pH 7.4) and centrifuged at 20.000 rpm for 15 min. The resulting pellet was resuspended, homogenized and centrifuged (20.000 rpm, 15 min) in a buffer containing 20 mM Na-HEPES and 0.1 mM EDTA (pH 7.4, buffer 2). The resulting pellet was resuspended in buffer 2 and protein concentration was measured (BCA protein Assay, Pierce). The homogenate was kept cold during the whole procedure. The membranes were kept at −80° C. until use. Assay was performed in a 384 well Optiplate (PerkinElmer) in a total volume of 40 ul. Membranes were mixed with SPA beads.

[2] = target: T2, rat amylin receptor (rat calcitonin …); experiment: SPA competition vs 125I-rat amylin, membranes with rat CTR + rat RAMP3 (Assay VI)
rat calcitonin receptor [3] = target: T3, rat calcitonin receptor; experiment: ratio IC50 rat calcitonin receptor / IC50 rat amylin receptor
rat calcitonin receptor [4] = target: T3, rat calcitonin receptor; experiment: SPA competition vs 125I-calcitonin, membranes with rat CTR (Assay VIII)

Binder	Ratio hCT/hAmylin binding [1]	IC50 [2]	Ratio rCT/rAmylin binding (rat calcitonin receptor [3])	IC50 (rat calcitonin receptor [4])
{C20 diacid-γGlu-γGlu}-KCNTATCATQRLAEFLRHSSPNFGAIPSSTNVGSNTY-NH2 (disulfide 2-7; SMILES CC[C@H](C)[C@H](NC(=O)[C@H](C)NC(=O)CNC(=O)[C@H](Cc1ccccc1)NC(=O)[C@H](CC(N)=O)NC(=O)[C@@H]1CCCN1C(=O)[C@H](CO)NC(=O)[C@H](CO)NC(=O)[C@H](Cc1c[nH]cn1)NC(=O)[C@H](CCCNC(=N)N)NC(=O)[C@H](CC(C)C)NC(=O)[C@H](Cc1ccccc1)NC(=O)[C@H](CCC(=O)O)NC(=O)[C@H](C)NC(=O)[C@H](CC(C)C)NC(=O)[C@H](CCCNC(=N)N)NC(=O)[C@H](CCC(N)=O)NC(=O)[C@@H](NC(=O)[C@H](C)NC(=O)[C@@H]1CSSC[C@H](NC(=O)[C@H](CCCCN)NC(=O)CC[C@H](NC(=O)CC[C@H](NC(=O)CCCCCCCCCCCCCCCCCCC(=O)O)C(=O)O)C(=O)O)C(=O)N[C@@H](CC(N)=O)C(=O)N[C@@H]([C@@H](C)O)C(=O)N[C@@H](C)C(=O)N[C@@H]([C@@H](C)O)C(=O)N1)[C@@H](C)O)C(=O)N1CCC[C@H]1C(=O)N[C@@H](CO)C(=O)N[C@@H](CO)C(=O)N[C@H](C(=O)N[C@@H](CC(N)=O)C(=O)N[C@H](C(=O)NCC(=O)N[C@@H](CO)C(=O)N[C@@H](CC(N)=O)C(=O)N[C@H](C(=O)N[C@@H](Cc1ccc(O)cc1)C(N)=O)[C@@H](C)O)C(C)C)[C@@H](C)O, Acylated analogue of human amylin; also called compound 15)	26	–	–	–
KCNTATCATQRLANFLRHSSPNFGAIPSSTNVGHNTY (C20 diacid-gGlu on alpha-amino of the N-terminal residue; Cys2-Cys7 disulfide; C-terminal amide (as human amylin), Acylated analogue of human amylin; also called compound 40) [N^α1-[(4S)-4-carboxy-4-(19-carboxynonadecanoylamino)butanoyl]-[Arg17,Pro21,Pro27,His34]-h-amylin]	31.1	1.5 nM	46.2	69.2 nM
KCNTATCATQRLANFLRHSSPNFGAIPSSTNVGRNTY (C20 diacid-gGlu on alpha-amino of the N-terminal residue; Cys2-Cys7 disulfide; C-terminal amide (as human amylin), Acylated analogue of human amylin; also called compound 39) [N^α1-[(4S)-4-carboxy-4-(19-carboxynonadecanoylamino)butanoyl]-[Arg17,Pro21,Pro27,Arg34]-h-amylin]	29	1.77 nM	54.5	96.4 nM
{C20 diacid-γGlu}-KCNTATCATQRLAHFLRHSSPNFGAIPSSTNVGSETY-NH2 (disulfide 2-7; SMILES CC[C@H](C)[C@H](NC(=O)[C@H](C)NC(=O)CNC(=O)[C@H](Cc1ccccc1)NC(=O)[C@H](CC(N)=O)NC(=O)[C@@H]1CCCN1C(=O)[C@H](CO)NC(=O)[C@H](CO)NC(=O)[C@H](Cc1c[nH]cn1)NC(=O)[C@H](CCCNC(=N)N)NC(=O)[C@H](CC(C)C)NC(=O)[C@H](Cc1ccccc1)NC(=O)[C@H](Cc1c[nH]cn1)NC(=O)[C@H](C)NC(=O)[C@H](CC(C)C)NC(=O)[C@H](CCCNC(=N)N)NC(=O)[C@H](CCC(N)=O)NC(=O)[C@@H](NC(=O)[C@H](C)NC(=O)[C@@H]1CSSC[C@H](NC(=O)[C@H](CCCCN)NC(=O)CC[C@H](NC(=O)CCCCCCCCCCCCCCCCCCC(=O)O)C(=O)O)C(=O)N[C@@H](CC(N)=O)C(=O)N[C@@H]([C@@H](C)O)C(=O)N[C@@H](C)C(=O)N[C@@H]([C@@H](C)O)C(=O)N1)[C@@H](C)O)C(=O)N1CCC[C@H]1C(=O)N[C@@H](CO)C(=O)N[C@@H](CO)C(=O)N[C@H](C(=O)N[C@@H](CC(N)=O)C(=O)N[C@H](C(=O)NCC(=O)N[C@@H](CO)C(=O)N[C@@H](CCC(=O)O)C(=O)N[C@H](C(=O)N[C@@H](Cc1ccc(O)cc1)C(N)=O)[C@@H](C)O)C(C)C)[C@@H](C)O, Acylated analogue of human amylin; also called compound 30)	23.6	3.14 nM	36.1	114 nM
KCNTATCATQRLANFLRHSSPNFGAIPSSTNVGSKTY (C20 diacid-gGlu on alpha-amino of the N-terminal residue; Cys2-Cys7 disulfide; C-terminal amide (as human amylin), Acylated analogue of human amylin; also called compound 34) [N^α1-[(4S)-4-carboxy-4-(19-carboxynonadecanoylamino)butanoyl]-[Arg17,Pro21,Pro27,Lys35]-h-amylin]	64.4	1.72 nM	52	89.2 nM
KCNTATCATQRLAEFLRHSSPNFGAIPSSTNVGSNTY (C20 diacid-gGlu-2xOEG on alpha-amino of the N-terminal residue; Cys2-Cys7 disulfide; C-terminal amide (as human amylin), Acylated analogue of human amylin; also called compound 19)	36.7	1.02 nM	93.6	95.6 nM
KCNTATCATQRLANFLRHSSPNFGAIPSSTNVGSETY (C20 diacid-gGlu on alpha-amino of the N-terminal residue; Cys2-Cys7 disulfide; C-terminal amide (as human amylin), Acylated analogue of human amylin; also called compound 23) [N^α1-[(4S)-4-carboxy-4-(19-carboxynonadecanoylamino)butanoyl]-[Arg17,Pro21,Pro27,Glu35]-h-amylin]	25	1.12 nM	71.3	79.9 nM
{C20 diacid-γGlu}-KCNTATCATQRLANFLRHSSPNFGAIPSSTPVGSETY-NH2 (disulfide 2-7; SMILES CC[C@H](C)[C@H](NC(=O)[C@H](C)NC(=O)CNC(=O)[C@H](Cc1ccccc1)NC(=O)[C@H](CC(N)=O)NC(=O)[C@@H]1CCCN1C(=O)[C@H](CO)NC(=O)[C@H](CO)NC(=O)[C@H](Cc1c[nH]cn1)NC(=O)[C@H](CCCNC(=N)N)NC(=O)[C@H](CC(C)C)NC(=O)[C@H](Cc1ccccc1)NC(=O)[C@H](CC(N)=O)NC(=O)[C@H](C)NC(=O)[C@H](CC(C)C)NC(=O)[C@H](CCCNC(=N)N)NC(=O)[C@H](CCC(N)=O)NC(=O)[C@@H](NC(=O)[C@H](C)NC(=O)[C@@H]1CSSC[C@H](NC(=O)[C@H](CCCCN)NC(=O)CC[C@H](NC(=O)CCCCCCCCCCCCCCCCCCC(=O)O)C(=O)O)C(=O)N[C@@H](CC(N)=O)C(=O)N[C@@H]([C@@H](C)O)C(=O)N[C@@H](C)C(=O)N[C@@H]([C@@H](C)O)C(=O)N1)[C@@H](C)O)C(=O)N1CCC[C@H]1C(=O)N[C@@H](CO)C(=O)N[C@@H](CO)C(=O)N[C@H](C(=O)N1CCC[C@H]1C(=O)N[C@H](C(=O)NCC(=O)N[C@@H](CO)C(=O)N[C@@H](CCC(=O)O)C(=O)N[C@H](C(=O)N[C@@H](Cc1ccc(O)cc1)C(N)=O)[C@@H](C)O)C(C)C)[C@@H](C)O, Acylated analogue of human amylin; also called compound 28)	20.5	1.22 nM	44.9	54.9 nM
